In US11325966:

Key:
Test in all cases: cell-based or functional assay
[1] = molecular target: HIV-1 envelope (Env) of pseudovirus 1006_11_C3_1601 (HIV-1)
[2] = molecular target: HIV-1 envelope (Env) of pseudovirus 1012_11_TC21_3257 (HIV-1)
[3] = molecular target: HIV-1 envelope (Env) of pseudovirus 191084 B7-19 (HIV-1)
[4] = molecular target: HIV-1 envelope (Env) of pseudovirus 211-9 (HIV-1)
[5] = molecular target: HIV-1 envelope (Env) of pseudovirus 235-47 (HIV-1)
[6] = molecular target: HIV-1 envelope (Env) of pseudovirus 3016.v5.c45 (HIV-1)
[7] = molecular target: HIV-1 envelope (Env) of pseudovirus 62357_14_D3_4589 (HIV-1)
[8] = molecular target: HIV-1 envelope (Env) of pseudovirus 6480.v4.c25 (HIV-1)
[9] = molecular target: HIV-1 envelope (Env) of pseudovirus 6535.3 (HIV-1)
[10] = molecular target: HIV-1 envelope (Env) of pseudovirus BJOX015000.11.5 (HIV-1)
[11] = molecular target: HIV-1 envelope (Env) of pseudovirus BJOX025000.01.1 (HIV-1)
[12] = molecular target: HIV-1 envelope (Env) of pseudovirus BJOX028000.10.3 (HIV-1)
[13] = molecular target: HIV-1 envelope (Env) of pseudovirus C2101.c01 (HIV-1)
[14] = molecular target: HIV-1 envelope (Env) of pseudovirus CNE20 (HIV-1)
[15] = molecular target: HIV-1 envelope (Env) of pseudovirus CNE21 (HIV-1)
[16] = molecular target: HIV-1 envelope (Env) of pseudovirus CNE30 (HIV-1)
[17] = molecular target: HIV-1 envelope (Env) of pseudovirus Ce0682_E4 (HIV-1)
[18] = molecular target: HIV-1 envelope (Env) of pseudovirus Du156.12 (HIV-1)
[19] = molecular target: HIV-1 envelope (Env) of pseudovirus MS208.A1 (HIV-1)
[20] = molecular target: HIV-1 envelope (Env) of pseudovirus P0402_c2_11 (HIV-1)
[21] = molecular target: HIV-1 envelope (Env) of pseudovirus P1981_C5_3 (HIV-1)
[22] = molecular target: HIV-1 envelope (Env) of pseudovirus PVO.4 (HIV-1)
[23] = molecular target: HIV-1 envelope (Env) of pseudovirus Q842.d12 (HIV-1)
[24] = molecular target: HIV-1 envelope (Env) of pseudovirus R1166.c01 (HIV-1)
[25] = molecular target: HIV-1 envelope (Env) of pseudovirus REJO4541.67 (HIV-1)
[26] = molecular target: HIV-1 envelope (Env) of pseudovirus T250-4 (HIV-1)
[27] = molecular target: HIV-1 envelope (Env) of pseudovirus T257-31 (HIV-1)
[28] = molecular target: HIV-1 envelope (Env) of pseudovirus T278-50 (HIV-1)
[29] = molecular target: HIV-1 envelope (Env) of pseudovirus TRJO4551.58 (HIV-1)
[30] = molecular target: HIV-1 envelope (Env) of pseudovirus WEAU_d15_410_787 (HIV-1)
[31] = molecular target: HIV-1 envelope (Env) of pseudovirus X1193_c1 (HIV-1)
[32] = molecular target: HIV-1 envelope (Env) of pseudovirus YU2_N160K (HIV-1) (UniProt P35961)
[33] = molecular target: HIV-1 envelope (Env) of pseudovirus YU2_N276D (HIV-1) (UniProt P35961)
[34] = molecular target: HIV-1 envelope (Env) of pseudovirus ZM214M.PL15 (HIV-1)
[35] = molecular target: HIV-1 envelope (Env) of pseudovirus ZM247v1 (Rev-) (HIV-1)
[36] = molecular target: HIV-1 Env of pseudovirus 7030102001E5 (Rev-) (HIV-1)
[37] = molecular target: HIV-1 YU2 Env N160K, on pseudovirus (HIV-1) (UniProt P35961)

BG1 (antibody)
IC50 in TZM-bl assay [1]: > 30 µg/mL | IC80 in TZM-bl assay [1]: > 30 µg/mL | IC50 in TZM-bl assay [2]: > 30 µg/mL | IC80 in TZM-bl assay [2]: > 30 µg/mL | IC50 in TZM-bl assay [3]: > 30 µg/mL | IC80 in TZM-bl assay [3]: > 30 µg/mL | IC50 in TZM-bl assay [4]: 2.85 µg/mL | IC80 in TZM-bl assay [4]: 12.9 µg/mL | IC50 in TZM-bl assay [5]: 1.27 µg/mL | IC80 in TZM-bl assay [5]: 4.38 µg/mL | IC50 in TZM-bl assay [6]: > 30 µg/mL | IC80 in TZM-bl assay [6]: > 30 µg/mL | IC50 in TZM-bl assay [7]: 0.638 µg/mL | IC80 in TZM-bl assay [7]: 2.89 µg/mL | IC50 in TZM-bl assay [8]: > 30 µg/mL | IC80 in TZM-bl assay [8]: > 30 µg/mL | IC50 in TZM-bl assay [9]: 0.322 µg/mL | IC80 in TZM-bl assay [9]: 1.13 µg/mL | IC50 in TZM-bl assay [10]: > 30 µg/mL | IC80 in TZM-bl assay [10]: > 30 µg/mL | IC50 in TZM-bl assay [11]: > 30 µg/mL | IC80 in TZM-bl assay [11]: > 30 µg/mL | IC50 in TZM-bl assay [12]: > 30 µg/mL | IC80 in TZM-bl assay [12]: > 30 µg/mL | IC50 in TZM-bl assay [13]: > 30 µg/mL | IC80 in TZM-bl assay [13]: > 30 µg/mL | IC50 in TZM-bl assay [14]: 4.26 µg/mL | IC80 in TZM-bl assay [14]: > 30 µg/mL | IC50 in TZM-bl assay [15]: > 30 µg/mL | IC80 in TZM-bl assay [15]: > 30 µg/mL | IC50 in TZM-bl assay [16]: > 30 µg/mL | IC80 in TZM-bl assay [16]: > 30 µg/mL | IC50 in TZM-bl assay [17]: > 30 µg/mL | IC80 in TZM-bl assay [17]: > 30 µg/mL | IC50 in TZM-bl assay [18]: 1.52 µg/mL | IC80 in TZM-bl assay [18]: 6.03 µg/mL | IC50 in TZM-bl assay [19]: 1.48 µg/mL | IC80 in TZM-bl assay [19]: 6.54 µg/mL | IC50 in TZM-bl assay [20]: > 30 µg/mL | IC80 in TZM-bl assay [20]: > 30 µg/mL | IC50 in TZM-bl assay [21]: > 30 µg/mL | IC80 in TZM-bl assay [21]: > 30 µg/mL | IC50 in TZM-bl assay [22]: > 30 µg/mL | IC80 in TZM-bl assay [22]: > 30 µg/mL | IC50 in TZM-bl assay [23]: 1.4 µg/mL | IC80 in TZM-bl assay [23]: 4.3 µg/mL | IC50 in TZM-bl assay [24]: > 30 µg/mL | IC80 in TZM-bl assay [24]: > 30 µg/mL | IC50 in TZM-bl assay [25]: 0.342 µg/mL | IC80 in TZM-bl assay [25]: 1.66 µg/mL | IC50 in TZM-bl assay [26]: 3.92 µg/mL | IC80 in TZM-bl assay [26]: > 30 µg/mL | IC50 in TZM-bl assay [27]: > 30 µg/mL | IC80 in TZM-bl assay [27]: > 30 µg/mL | IC50 in TZM-bl assay [28]: 19.3 µg/mL | IC80 in TZM-bl assay [28]: > 30 µg/mL | IC50 in TZM-bl assay [29]: > 30 µg/mL | IC80 in TZM-bl assay [29]: > 30 µg/mL | IC50 in TZM-bl assay [30]: > 30 µg/mL | IC80 in TZM-bl assay [30]: > 30 µg/mL | IC50 in TZM-bl assay [31]: 0.138 µg/mL | IC80 in TZM-bl assay [31]: 0.463 µg/mL | IC50 in TZM-bl assay [32]: > 30 µg/mL | IC80 in TZM-bl assay [32]: > 30 µg/mL | IC50 in TZM-bl assay [33]: 18.8 µg/mL | IC80 in TZM-bl assay [33]: > 30 µg/mL | IC50 in TZM-bl assay [34]: > 30 µg/mL | IC80 in TZM-bl assay [34]: > 30 µg/mL | IC50 in TZM-bl assay [35]: > 30 µg/mL | IC80 in TZM-bl assay [35]: > 30 µg/mL

BG18 IgG (354BG18) (antibody)
IC50 in TZM-bl assay [36]: 0.002 µg/mL | IC80 in TZM-bl assay [36]: 0.008 µg/mL | IC50 in TZM-bl assay [37]: 0.028 µg/mL | IC80 in TZM-bl assay [37]: 0.15 µg/mL
